{"source": "patent US20140271653A1", "key": {"[1]": {"biological_target": "RSV-F of RSV subtype B lab strains", "experiment": "cell-based or functional assay"}, "[2]": {"biological_target": "RSV-F of RSV subtype A lab strains", "experiment": "cell-based or functional assay"}}, "note": "“And” between values parts separate entries of the source, which are not always exact repeats. Equal values may be shown once."}
{"binder": "H1H3592P3 (antibody, V domains shown) VH: EVQLVESGGDLVQPGRSLRLSCVASGFTFDDYAMHWVRQAPGKGLEWVSGVSWSGSTVGYADSVKGRFTVSRDNAQKSLYLQMNSLRAEDTALYYCVKDAYKFNYYYYGLDVWGQGTTVTVSS VL: EIVMTQSPATLSVSPGERATLSCRASQTILSNLAWYLQKPGQAPRLLIYGASTRATGLPARFSGSGSGTEFTLTISSLQSEDFAVYYCQQYNNWPLTFGGGTKVEIK", "values": [{"measurement": "neutralization potency on HEp-2 cells, fold against control I", "setting": "[1]", "result": "2 fold and 5 fold"}, {"measurement": "neutralization potency on HEp-2 cells, fold against control I", "setting": "[2]", "result": "15 fold and 17 fold"}]}
